Like-named read-outs stand apart in the source and are kept apart here.
Assays:
[1] = molecular target: control insect cell lysate (sf9 cells infected with empty Baculovirus); assay: immuno-trap protease assay, control lysate (second row)
[2] = molecular target: recombinant equine-TSH-beta (equine) (UniProt Q28376); assay: immuno-trap protease assay, anti-FLAG with TSH-beta; TSH-beta has no proteolytic activity, so the reading is background and does not tell whether it was trapped
[3] = molecular target: control insect cell lysate (sf9 cells infected with empty Baculovirus); assay: immuno-trap protease assay, control lysate
[4] = molecular target: recombinant bovine PAG-2 (fusion protein with the FLAG peptide) (bovine) (UniProt Q28057); assay: immuno-trap protease assay on crude insect cell lysate (second row)
[5] = molecular target: recombinant bovine PAG-12 (fusion protein with the FLAG peptide) (bovine); assay: as above
[6] = molecular target: recombinant porcine PAG-2 (FLAG-tagged) (porcine) (UniProt Q29079); assay: as above
[7] = molecular target: recombinant bovine PAG-2 (fusion protein with the FLAG peptide) (bovine) (UniProt Q28057); assay: immuno-trap protease assay on crude insect cell lysate
[8] = molecular target: recombinant bovine PAG-12 (fusion protein with the FLAG peptide) (bovine); assay: as above
[9] = molecular target: recombinant porcine PAG-2 (FLAG-tagged) (porcine) (UniProt Q29079); assay: as above
[10] = molecular target: recombinant porcine PAG-2 (FLAG-tagged) (porcine) (UniProt Q29079); assay: immuno-trap protease assay, anti-FLAG with poPAG-2 lysate as positive control
[11] = molecular target: bovine serum albumin (bovine) (UniProt P02769); assay: immuno-trap protease assay, 1 ug rabbit immunoglobulins coated, background control, 50 ng blank column
[12] = test system: T1, fluorescent cathepsin D/E substrate MOCac-Gly-Lys-Pro-Ile-Leu-Phe-Phe-Arg-Leu-Lys(Dnp)-D-Arg-NH2
T1 sequence: GKPILFFRLK

[13] = molecular target: T1, fluorescent cathepsin D/E substrate MOCac-Gly-Lys-Pro-Ile-Leu-Phe-Phe-Arg-Leu-Lys(Dnp)-D-Arg-NH2; assay: cell-based or functional assay
[14] = molecular target: T2, fluorescent cathepsin D/E substrate MOCac-Gly-Lys-Pro-Ile-Leu-Phe-Phe-Arg-Leu-Lys(Dnp)-D-Arg-NH2
T2 chain: GKPILFFRLK

UniProt P02769, sequence (P02769 25-607 limits assumed): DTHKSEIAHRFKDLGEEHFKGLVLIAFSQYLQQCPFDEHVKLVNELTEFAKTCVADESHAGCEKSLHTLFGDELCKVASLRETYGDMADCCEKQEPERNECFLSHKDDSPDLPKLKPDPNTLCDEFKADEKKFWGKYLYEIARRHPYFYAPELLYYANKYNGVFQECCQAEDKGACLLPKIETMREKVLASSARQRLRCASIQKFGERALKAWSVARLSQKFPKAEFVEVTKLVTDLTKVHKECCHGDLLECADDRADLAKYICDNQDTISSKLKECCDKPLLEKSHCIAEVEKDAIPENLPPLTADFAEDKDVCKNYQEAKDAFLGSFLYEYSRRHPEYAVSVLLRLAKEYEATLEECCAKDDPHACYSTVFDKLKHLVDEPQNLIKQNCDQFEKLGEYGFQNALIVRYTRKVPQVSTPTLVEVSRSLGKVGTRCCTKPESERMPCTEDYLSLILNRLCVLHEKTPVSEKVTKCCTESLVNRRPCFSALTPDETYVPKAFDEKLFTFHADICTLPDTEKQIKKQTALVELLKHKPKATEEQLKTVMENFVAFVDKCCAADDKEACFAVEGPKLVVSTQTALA

## anti-FLAG monoclonal antibody (M2; Sigma)
[1]
  relative fluorescence of released product (relative fluorescence): 7760
[2]
  relative fluorescent product release (relative fluorescence): 47000
[3]
  relative fluorescence of released product (relative fluorescence): 4120
[4]
  relative fluorescence of released product (relative fluorescence): 26500
[5]
  relative fluorescence of released product (relative fluorescence): 23000
[6]
  relative fluorescence of released product (relative fluorescence): 92300
[7]
  relative fluorescence of released product (relative fluorescence): 27000
[8]
  relative fluorescence of released product (relative fluorescence): 42300
[9]
  relative fluorescence of released product (relative fluorescence): 96800
[10]
  relative fluorescent product release (relative fluorescence): 97400

## rabbit immunoglobulins (background control) (antibody)
[11]
  relative fluorescence (counts) of released product: 6040 counts

## recombinant boPAG-6 (FLAG epitope tag fusion)
[12]
  proteolytic activity: recombinant boPAG-6, -8, -9 and -10 have proteolytic activity with acidic pH optima
  relative fluorescent product release, anti-FLAG immuno-trap protease assay, pH 3.0 (relative fluorescence): 84000
  relative fluorescent product release, anti-FLAG immuno-trap protease assay, pH 4.0 (relative fluorescence): 77900
  relative fluorescent product release, anti-FLAG immuno-trap protease assay, pH 5.0 (relative fluorescence): 66300
  relative fluorescent product release, anti-FLAG immuno-trap protease assay, pH 6.0 (relative fluorescence): 31300
  relative fluorescent product release, anti-FLAG immuno-trap protease assay, pH 7.0 (relative fluorescence): 24300

## recombinant boPAG-8 (FLAG epitope tag fusion)
[12]
  proteolytic activity: recombinant boPAG-6, -8, -9 and -10 have proteolytic activity with acidic pH optima
  relative fluorescent product release, anti-FLAG immuno-trap protease assay, pH 3.0 (relative fluorescence): 80600
  relative fluorescent product release, anti-FLAG immuno-trap protease assay, pH 4.0 (relative fluorescence): 63600
  relative fluorescent product release, anti-FLAG immuno-trap protease assay, pH 5.0 (relative fluorescence): 56100
  relative fluorescent product release, anti-FLAG immuno-trap protease assay, pH 6.0 (relative fluorescence): 31900
  relative fluorescent product release, anti-FLAG immuno-trap protease assay, pH 7.0 (relative fluorescence): 26400

## recombinant boPAG-9 (FLAG epitope tag fusion)
[12]
  proteolytic activity: recombinant boPAG-6, -8, -9 and -10 have proteolytic activity with acidic pH optima
  relative fluorescent product release, anti-FLAG immuno-trap protease assay, pH 3.0 (relative fluorescence): 72100
  relative fluorescent product release, anti-FLAG immuno-trap protease assay, pH 4.0 (relative fluorescence): 55000
  relative fluorescent product release, anti-FLAG immuno-trap protease assay, pH 5.0 (relative fluorescence): 48100
  relative fluorescent product release, anti-FLAG immuno-trap protease assay, pH 6.0 (relative fluorescence): 27800
  relative fluorescent product release, anti-FLAG immuno-trap protease assay, pH 7.0 (relative fluorescence): 24400

## recombinant boPAG-10 (FLAG epitope tag fusion)
[12]
  proteolytic activity: recombinant boPAG-6, -8, -9 and -10 have proteolytic activity with acidic pH optima
  relative fluorescent product release, anti-FLAG immuno-trap protease assay, pH 3.0 (relative fluorescence): 52100
  relative fluorescent product release, anti-FLAG immuno-trap protease assay, pH 4.0 (relative fluorescence): 42700
  relative fluorescent product release, anti-FLAG immuno-trap protease assay, pH 5.0 (relative fluorescence): 38800
  relative fluorescent product release, anti-FLAG immuno-trap protease assay, pH 6.0 (relative fluorescence): 26500
  relative fluorescent product release, anti-FLAG immuno-trap protease assay, pH 7.0 (relative fluorescence): 23600

## recombinant boPAG-17 (FLAG epitope tag fusion)
[13]
  relative fluorescent product release, anti-FLAG immuno-trap protease assay, pH 3.0 (relative fluorescence): 34600
  relative fluorescent product release, anti-FLAG immuno-trap protease assay, pH 4.0 (relative fluorescence): 28600
  relative fluorescent product release, anti-FLAG immuno-trap protease assay, pH 5.0 (relative fluorescence): 28500
  relative fluorescent product release, anti-FLAG immuno-trap protease assay, pH 6.0 (relative fluorescence): 23300
  relative fluorescent product release, anti-FLAG immuno-trap protease assay, pH 7.0 (relative fluorescence): 23700

## recombinant boPAG-19 (FLAG epitope tag fusion)
[13]
  relative fluorescent product release, anti-FLAG immuno-trap protease assay, pH 3.0 (relative fluorescence): 40300
  relative fluorescent product release, anti-FLAG immuno-trap protease assay, pH 4.0 (relative fluorescence): 32500
  relative fluorescent product release, anti-FLAG immuno-trap protease assay, pH 5.0 (relative fluorescence): 32100
  relative fluorescent product release, anti-FLAG immuno-trap protease assay, pH 6.0 (relative fluorescence): 24300
  relative fluorescent product release, anti-FLAG immuno-trap protease assay, pH 7.0 (relative fluorescence): 23300

## recombinant boPAG-20 (FLAG epitope tag fusion)
[13]
  relative fluorescent product release, anti-FLAG immuno-trap protease assay, pH 3.0 (relative fluorescence): 38600
  relative fluorescent product release, anti-FLAG immuno-trap protease assay, pH 4.0 (relative fluorescence): 31300
  relative fluorescent product release, anti-FLAG immuno-trap protease assay, pH 5.0 (relative fluorescence): 31400
  relative fluorescent product release, anti-FLAG immuno-trap protease assay, pH 6.0 (relative fluorescence): 24500
  relative fluorescent product release, anti-FLAG immuno-trap protease assay, pH 7.0 (relative fluorescence): 23800

## recombinant bovine PAG-12 (fusion protein with the FLAG peptide)
[12]
  proteolytic activity (% relative activity): maximal activity for boPAG-12 and poPAG-2 was at pH 3.5

## recombinant equine-TSH-beta (from UniProt Q28376 21-138)
[13]
  relative fluorescent product release, anti-FLAG immuno-trap protease assay, pH 3.0 (negative control) (relative fluorescence): 38300
  relative fluorescent product release, anti-FLAG immuno-trap protease assay, pH 4.0 (negative control) (relative fluorescence): 33900
  relative fluorescent product release, anti-FLAG immuno-trap protease assay, pH 5.0 (negative control) (relative fluorescence): 35000
  relative fluorescent product release, anti-FLAG immuno-trap protease assay, pH 6.0 (negative control) (relative fluorescence): 28200
  relative fluorescent product release, anti-FLAG immuno-trap protease assay, pH 7.0 (negative control) (relative fluorescence): 26600

B1: recombinant bovine PAG-2 (fusion protein with the FLAG peptide) (protein)
chain: DYKDDDDKIVILPLKKMKTLRETLREKNLLNNFLEEQAYRLSKNDSKITIHPLRNYLDTAYVGNITIGTPPQEFRVVFDTGSANLWVPCITCTSPACYTHKTFNPQNSSSFREVGSPITIFYGSGIIQGFLGSDTVRIGNLVSPEQSFGLSLEEYGFDSLPFDGILGLAFPAMGIEDTIPIFDNLWSHGAFSEPVFAFYLNTNKPEGSVVMFGGVDHRYYKGELNWIPVSQTSHWQISMNNISMNGTVTACSCGCEALLDTGTSMIYGPTKLVTNIHKLMNARLENSEYVVSCDAVKTLPPVIFNINGIDYPLRPQAYIIKIQNSCRSVFQGGTENSSLNTWILGDIFLRQYFSVFDRKNRRIGLAPAV
[14]
  proteolytic activity (% relative activity): Maximal activity for boPAG-2 was at pH 4

B2: recombinant porcine PAG-2 (FLAG-tagged) (protein)
chain: DYKDDDDKLVMIPLTKVKSVRESLREKGLLKNFLKEHPYNMIQNLLSKNSSHVQKFSYQPLRNYLDMVYVGNISIGTPPQQFSVVFDTGSSDLWVPSIYCKSKACVTHRSFNPSHSSTFHDRGKSIKLEYGSGKMSGFLGQDTVRIGQLTSTGQAFGLSKEETGKAFEHAIFDGILGLAYPSIAIKGTTTVIDNLKKQDQISEPVFAFYLSSDKEEGSVVMFGGVDKKYYKGDLKWVPLTQTSYWQIALDRITCRGRVIGCPRGCQAIVDTGTSMLHGPSKAVAKIHSLIKHFEKEYVVPCNARKALPDIVFTINNVDYPVPAQAYIRKYVVPCNARKALPDIVFTINNVDYPVPAQAYIRKNANNNRCYSTFEDIMDTLNQREIWILGDVFLRLYFTVYDEGQNRIGLAQAT
[14]
  proteolytic activity (% relative activity): maximal activity for boPAG-12 and poPAG-2 was at pH 3.5
